The results in this text go back to patent US20070265350.

One data set addresses His-Cdc42 (UniProt P60953).

Demetalated bovine SOD1, sequence (chain, as listed by the source): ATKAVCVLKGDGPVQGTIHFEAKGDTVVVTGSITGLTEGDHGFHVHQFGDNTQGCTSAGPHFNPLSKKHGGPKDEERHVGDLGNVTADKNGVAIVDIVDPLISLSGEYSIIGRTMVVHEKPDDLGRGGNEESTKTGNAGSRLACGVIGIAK
Bovine copper/zinc superoxide dismutase (SOD1), native, sequence (chain, as listed by the source): as above
His-Cdc42, sequence (P60953 whole entry, looked up): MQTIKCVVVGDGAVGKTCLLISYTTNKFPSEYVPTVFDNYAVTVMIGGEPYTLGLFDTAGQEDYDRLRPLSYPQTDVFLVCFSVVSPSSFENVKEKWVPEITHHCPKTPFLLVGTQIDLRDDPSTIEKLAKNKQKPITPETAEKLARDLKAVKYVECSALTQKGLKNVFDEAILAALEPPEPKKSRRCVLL

In the case of “Bovine copper/zinc superoxide dismutase (SOD1), native”, in the data set with His-Cdc42, the “Cdc42 GTPase assay (rate of 32Pi release from γP32-GTP)” value is “The ability of SOD1 to inhibit GTP hydrolysis was also specific for Rac1 and was not observed with the closely related small GTPase Cdc42”.

Demetalated bovine SOD1: in the data set on Histidine-tagged Rac1, the “Rac1 GTPase assay (rate of 32Pi release from γP32-GTP)” value is reported as “also did not inhibit Rac1 GTPase activity (FIG. 6B)”.
